Test results published in article PMC9909445 (Nature nanotechnology, 2022).

Tests used:
[1] = target: T1, murine neutrophil elastase (mNE) (mouse, UniProt Q3UP87 27-265); test: SPR
T1 sequence (looked up): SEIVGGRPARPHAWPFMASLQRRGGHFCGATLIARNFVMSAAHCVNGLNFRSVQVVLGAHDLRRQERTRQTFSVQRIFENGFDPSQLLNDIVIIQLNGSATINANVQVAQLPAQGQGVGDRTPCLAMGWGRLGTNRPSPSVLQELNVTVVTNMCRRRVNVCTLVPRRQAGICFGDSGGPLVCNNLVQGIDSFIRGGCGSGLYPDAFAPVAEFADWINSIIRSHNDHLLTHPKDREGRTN

[2] = target: T2, human neutrophil elastase (hNE) (human, UniProt P08246 30-267); test: MST
T2 sequence (looked up): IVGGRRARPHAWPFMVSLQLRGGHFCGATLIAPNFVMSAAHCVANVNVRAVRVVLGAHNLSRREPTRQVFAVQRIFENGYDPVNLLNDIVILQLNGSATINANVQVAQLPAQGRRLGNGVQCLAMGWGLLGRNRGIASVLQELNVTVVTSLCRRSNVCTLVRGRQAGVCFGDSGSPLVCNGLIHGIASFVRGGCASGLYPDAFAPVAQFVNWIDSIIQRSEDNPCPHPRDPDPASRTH

- Kd [1]: 1.6 nM
- koff [1]: 8.31e-06 s⁻¹
- kon [1]: 5200 M⁻¹ s⁻¹
- Kd [2]: 2080 ± 1350 nM
Binder: CGEAIPMSIPPEVK [NE-binding peptide (NEBP)]
